Source: publication PMC6522554

Molecular target: BF520.M6.I1 Env (HIV-1 (clade A, infant BF520))

B1: BF520.1 mature mAb (IgG) (antibody, V domains shown)
VH: QVQLVQSGAEMKMPGASVKVSCKASGYTFTGNYIHWVRQAPGQGLEWMGWIAPHSGDTSYAQRFQGRVTMTGDTSLSTAYMELSRLRSDDTAVYYCARGPFPNYYGPGSYWGGLDFWGQGTLVSVSS
VL: EIVMTQSPATLSVSLGERATLSCRTSQNVAYNFAWYQQKPGQAPRLLIYEASSRATGTPARFSGSGFGTEFTLTISSMQSEDFAVYYCQQYNNWPSPFTFGPGTKVHIK
**Q.** For B1, which potency (IC50) of neutralization of the autologous pseudovirus BF520.M6.I1 is on record?
**A.** 1.1 μg ml^−1
